Numbering of substitutions follows the chain as printed. No end group written: not given here. *: point of attachment. Biotin = O=C1N[C@H]2[C@H](CS[C@H]2CCCCC(=O)*)N1; linker = not defined here

Experiment [1] addresses T1, cynomolgus CD3-epsilon (cynomolgus, UniProt Q95LI5 22-198).
T1 construct: whole, on cells; also called CD3ε on cynomolgus T cells / PBMCs
As to the kind of experiment: flow cytometry, three-colour staining (CD3/CD4/CD8) of cynomolgus PBMCs of three donors. On the procedure: Cross-reactivity of anti-CD3ε antibodies to cynomolgus CD3-epsilon was assessed by three-color phenotyping (CD3/CD4/CD8) using PBMCs from three different cynomolgus donors.
PBMCs from different cynomolgus donors were stained with anti-CD4, anti-CD8, and a panel of different anti-CD3 antibodies. For each anti-CD3 antibody, the CD3 positive cells were gated and assessed for their CD4/CD8 phenotype. FIG. 8A depicts the total CD3 positive cells in PBMCs from the three different donors. FIGS. 8B-8E show the percentage of CD3 positive cells displaying CD4−/CD8+, CD4+/CD8−, CD4+/CD8+, and CD4−/CD8− phenotypes, respectively.

In experiment [2] the target is T2, AGS73.15 (MS497).
T2 construct: It carries a human IgG Fc (detected with anti-human IgG Fc)
As to the kind of experiment: flow cytometry, blocking of AGS73.15 binding to CD3ε on human T cells, % binding, the axis reads nM.

The target of experiment [3] is T2, AGS73.15 (MS497). As to the kind of experiment: flow cytometry, blocking of AGS73.15 (200 ng/ml) binding to CD3ε on human T cells; AGS73.15 detected with anti-human IgG Fc-PE. (In flow cytometry, cells or beads pass a laser one at a time.)
In experiment [4] the target is T3, biotinylated 15-mer peptide corresponding to the CD3ε N-terminus (human, UniProt P07766 22-36, limits assumed, not fully specified; reading uncertain).
T3 construct: domain: N-terminal 15-mer; Immobilised on streptavidin-conjugated Luminex beads; The text says 'peptides' in the plural, so more than one overlapping N-terminal 15-mer may be meant; also called N-terminal 15-mer; biotinylated N-terminal 15-mer
T3 peptide (looked up): {Biotin-linker}-QDGNEEMGGITQTPY
The experiment can be described thus: Luminex bead assay, peptide on streptavidin beads. On the procedure:
A set of experiments was performed to map the epitope recognized by the anti-CD3ε antibodies. In these experiments, the anti-CD3ε antibodies were assessed for binding to a collection of overlapping 15-mer peptides spanning amino acids 1-27 of human CD3ε protein using a Luminex bead assay. Control CD3 proteins, control peptides, or the test peptides were immobilized on Luminex beads and incubated with a panel of anti-CD3 antibodies. Binding of the anti-CD3 antibodies to the peptide/protein immobilized on the Luminex bead was detected by R-Phycoerythrin conjugated secondary antibody.
Recombinant CD3 proteins (human CD3d/e heterodimer and cynomolgus CD3-epsilon (Sinobiological)) and control peptides (#p1, #p2, and #p3) were conjugated to Luminex beads using standard EDC/Sulfo-NHS chemistry. […] The Luminex beads with immobilized peptides or reagents were incubated with 50 ul of a panel of anti-CD3 antibodies (1 ug/ml) for one hour at room temperature, washed two times, incubated with mixture of anti-human and anti-mouse IgG-RPE (Jackson Immunoresearch 109-116-097 and Southern Biotech 1030-09, respectively) for 30 mins at RT, washed three times, and analyzed in the Luminex instrument to assess the level of bound anti-CD3 antibodies.

Experiment [5] concerns the target T1, cynomolgus CD3-epsilon. As to the kind of experiment: flow cytometry on cynomolgus T cells. On the procedure: (§1) In these experiments, human or cynomolgus T cells were incubated with an anti-CD3ε antibody and binding was assessed by flow cytometry.
(§2) Briefly, donor T cells from either human or cynomolgus donors were resuspended in FACS buffer containing 0.1% sodium azide and aliquoted in 100 μL volumes. For incubation, 100 μL aliquots of donor T cells were mixed with 50 μL of antibodies diluted in FACS buffer containing 0.1% sodium azide. The cells were then washed twice with FACS buffer containing sodium azide. The bound antibody was detected by incubating cells for 60 minutes with a 1:200 dilution of SAV-RPE (Invitrogen Cat No. SA10044, Lot. 1542820A) or 1:100 dilution of goat-anti-Mouse Fcγ-RPE (Jackson Cat. No. 115-116-071, Lot. 108668, diluted in 0.2% goat serum). The cells were washed, fixed, and analyzed with an Accuri Flow Cytometer.
(§3) Treatment with OKT3, SP34-2, and diL2K antibodies were used as positive controls for T cell binding. […] Treatment with OKT3, SP34-2, and diL2K antibodies were used as controls for T cell binding with only SP34-2 binding to cynomolgus T cells, as expected.

A further experiment has as its target T4, human CD3 epsilon (CD3ε) (human, UniProt P07766 23-207).
T4 construct: Present on donor human T cells as part of the TCR-CD3 complex; also called CD3ε on human T cells
The experiment can be described thus: flow cytometry on human T cells. How it is done:
as §1, §2, §3

T1 sequence (Q95LI5 22-198): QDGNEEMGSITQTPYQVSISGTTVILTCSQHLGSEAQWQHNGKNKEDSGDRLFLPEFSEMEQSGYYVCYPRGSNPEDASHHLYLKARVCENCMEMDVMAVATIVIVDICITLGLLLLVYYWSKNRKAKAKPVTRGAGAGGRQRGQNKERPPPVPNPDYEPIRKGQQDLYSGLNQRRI

B1: 1c144.1 (antibody, V domains shown)
VH: ELQLVESGGGLVQPGGSLRLSCAASGFNFRSYEMNWVRQAPGKGLEWVSYISSSSTTIYYAGSVKGRFTISRDNAKHSLYLQMNSLRAEDTAVYYCARDRGALDYWGQGTLVTVSS
VL: DIQMTQSPSSLSASVGDRVTITCQASQDIRKYLNWYQQKPGKAPKLLIYDASNLETGVPSRFSGSGSGTDFSFTISSLQPEDLATYYCQHYANLPPLFTFGPGTKVDIKR
notes: the sheet prints 1c144.1
Take B1: the binding result in the experiment with cynomolgus CD3-epsilon [1] is “binds”.

B2: 6d59.id.1b18.1 (antibody, V domains shown)
VH: DVLLQESGPGLVKPSQSLSLTCSVTGYSITSGHYWIWIRQFPGNKLEWMGYITYDGSNNYNPSLKKRISITRDTSENQFFLKLNPVTTEDTATYYCARDVADSYGNGYDAMDYWGQGTSVTVSS
VL: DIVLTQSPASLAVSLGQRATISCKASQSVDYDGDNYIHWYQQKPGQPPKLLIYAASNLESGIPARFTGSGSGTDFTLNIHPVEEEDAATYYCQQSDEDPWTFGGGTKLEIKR
notes: Anti-idiotypic antibody against 6d59
What is called EC50 is the concentration needed to bring the measured effect to its halfway point. Take B2: the response with AGS73.15 (MS497) [2] was half-maximal at 0.443 nM (EC50). For the same molecule, the “IC50 (read off the curve)” value with AGS73.15 (MS497) [3] was ~0.07 µg/mL.

B3: 6d59.id.1b67.1 (antibody, V domains shown)
VH: QVTLKESGPGILKPSQTLSLTCSFSGFSLSTSGMGVGWIRQPSGKGLEWLAHIWWDDDKFYKPSLKNRLTISKDTSRNQVFLKITSVDTADAATYFCVRRSAYEAFTLDYWGQGTSVTVSS
VL: DIMLTQSPASLAVSLGQRATISCKASQSVDYDGNGYLNWYQQKPGQPPKLLIYAASNLESGIPARFSGSGSGTDFTLNIHPVEEEDVATYYCQQSSEDPFTFGSGTKLEIKR
notes: as for B2
Regarding B3, the EC50 with AGS73.15 (MS497) [2] is 0.56 nM. Further, the “IC50 (read off the curve)” value with AGS73.15 (MS497) [3] was ~0.08 µg/mL.

B4: 6d23 (antibody, V domains shown)
VH: QVQLVESGGGVVQPGRSLRLSCEASGFTFRSYGMHWVRQAPGKGLEWVAIIWYDGSNKYYGDSVKGRFTISRDNSKNTLSLQMNSLRAEDTAVYYCASLSVNDYYVLDVWGQGTTVTVSS
VL: DVVMTQSPFSLPVTLGQPASMSCRSSQSLVNSDGKTHLNWFQQRPGQSPRRLIYKVSNRDSGVPDRFSGSGSGTDFTLKISRVEAEDVGVYYCMQGTHWPLTFGGGTKVEIKR
notes: Anti-CD3ε antibody; also called 6d23.1; VCD3-6d23.1
As to B4, the binding result in experiment [4] is “no binding (tested: 1 ug/ml)”.

B5: 4b8 (antibody, V domains shown)
VH: EVQLVESGGGLVKPGGSLRLSCAASGFTFSSYSMNWVRQAPGKGLDWVSYISRSSNYTYYADSVMGRFTISRDNAKNSLYLQMNSLRAEDTAVYYCARDRRGYSGYNHFDYWGQGTLVTVSS
VL: DIQMTQSPSSLSASVGDRVTITCRASQSISNYLNWYQQKPGKAPKLLIYAASSLQSGVPSRFSGSRSGTDFTLTISSLQPEDFASYYCQQSFSTLYTFGQETKLEIKR
notes: Anti-CD3ε antibody
One may read the EC50 (read off the curve) as the midpoint of the concentration-response curve. Low readings indicate a more potent agent, high ones a less potent agent. In the case of B5, the binding result in the experiment with cynomolgus CD3-epsilon [5] is “no binding”. In the experiment with human CD3 epsilon (CD3ε), the “EC50 (read off the curve)” value lay in the range of 1 to 3 nM.

B6: 6d58 (antibody, V domains shown)
VH: QVHLVESGGGVVQPGRSLRLSCAASGFKFRSYGMHWVRQAPGKGLEWVAIIWYDGSKRYYADSVKGRFTISRDNSKNTLYLQMSSLRAEDTAVYYCARDLITGTTDYWGQGTLVTVSS
VL: DVVMTQSPLSLPVTLGQPASISCRSSRSLVYSDGNTHLIWFQQRPGQSPRRLIYRVSNRVSGVPDRFSGSGSGTDFTLKISRVEAEDVGVYYCLQGAHWPYTFGQGTKLEIKR
notes: also called 6d58 (same as 6d59)
Consider B6, for which the “EC50 (read off the curve)” value was ~0.07 nM with cynomolgus CD3-epsilon [5] and ~0.05 nM with human CD3 epsilon (CD3ε).

B7: 6d59.id.1b54.1 (antibody, V domains shown)
VH: DVQLQESGPGLVKPSQSLSLTCSVTGYSITSSYYWNWIRQFPGNKLEWMGSIMYDGNNNYNPSLKNRISITRDTSKNQFFLKLNSVTTEDTATYYCARNMADYFGNTYDALDYWGQGTSVTVSS
VL: DILLTQSPGSLAVSLGQRATISCKASQSADYGGDSYMSWYQQKPGQPPKLLIYAASNLESGTPARFSGSGSGTDFTLNIHPVEEEDAATYYCQQGNEDPWTFGGGTKLEIKR
notes: as for B2
As for B7, the EC50 with AGS73.15 (MS497) [2] is 0.413 nM. Besides, the “IC50 (read off the curve)” value with AGS73.15 (MS497) [3] is ~0.07 µg/mL.

B8: 6d59.id.1b71.1 (antibody, V domains shown)
VL: B3 VL with M3V, L37M, V87A, S96N, F100Y, S104G
V domain: EVQLQQSGSELASPGTSVKLSCKASGYTFTSYWVQWIKQRPGQGLEWIGAIYPGDGDLRSTQKFKGKATLTADKSSDTAYMQLSSLASEDSAVYYCARLDDFDLDYWGQGTTLIVSS
notes: as for B2
As to B8, the EC50 with AGS73.15 (MS497) [2] worked out at 0.327 nM. In addition, in the experiment with AGS73.15 (MS497) [3], the “IC50 (read off the curve)” value was ~0.06 µg/mL.

B9: 6d59.id.1b73.1 (antibody, V domains shown)
VH: QVQLQQSGPEVVKPGASVKMSCKASGYTFTDCVISWIKQRTGQGLEWIGEIHPGSGNTYNNEKFKGKATLTADKSSNTAYIQLSSLTSEDSAVYFCARVGDWYDDAMDYWGQGTSVTVSS
VL: B3 VL with M3V, L37M, V87A, S96N, F100Y, S104G
notes: as for B2
As for B9, it took 0.335 nM to reach a half-maximal effect with AGS73.15 (MS497) [2] (EC50). Further, the “IC50 (read off the curve)” value with AGS73.15 (MS497) [3] is ~0.05 µg/mL.

B10: 6d59.id.1b76.1 (antibody, V domains shown)
VH: DVKLVDSGGGLVKPGGSLKLSCAASGFTFSNYGMSWVRQTPEKRLEWVATISSGGYYTYYPDSVKGRFTISRDNAKNTLYLQMGSLKSEDTAMYYCSRDREGFGNYLGAMDYWGQGTSVTVSS
VL: B3 VL with M3V, L37M, V87A, S96N, F100Y, S104G
notes: as for B2
As for B10, the response in the experiment with AGS73.15 (MS497) [2] was half-maximal at 0.243 nM (EC50). In the experiment with AGS73.15 (MS497) [3], the “IC50 (read off the curve)” value was ~0.05 µg/mL.

B11: 6d59.id.1b61.1 (antibody, V domains shown)
VH: B7 VH with S51Y
VL: B7 VL
notes: as for B2
The molecule B11 had an EC50 with AGS73.15 (MS497) [2] of 0.368 nM. Also, the “IC50 (read off the curve)” value in the experiment with AGS73.15 (MS497) [3] was ~0.06 µg/mL.

For the origin of these results see patent US20230057263A1 (CYTOMX THERAPEUTICS, published 2023).
